{"source": "patent US20050282739A1", "about": "(PALATIN TECHNOLOGIES, published 2005)", "binders": {"B1": {"name": "metallopeptide 5-2 (peptide)", "peptide": "YV[Nle]GH[dF]RWDCF-NH2", "modifications": "also: oxorhenium(V) N3S1 chelate: C10 SG + backbone N of W8, D9, C10, bridge at 10 via Re(V)=O, other end not in the chain"}, "B2": {"name": "metallopeptide 5-6 (peptide)", "peptide": "YV[Nle]GHCRWDRF-NH2", "modifications": "also: oxorhenium(V) N3S1 chelate: C6 SG + backbone N of G4, H5, C6, bridge at 6 via Re(V)=O, other end not in the chain"}, "B3": {"name": "metallopeptide 5-5 (peptide)", "peptide": "YV[Nle]GH[dF]CWDRF-NH2", "modifications": "also: oxorhenium(V) N3S1 chelate: C7 SG + backbone N of H5, F6, C7, bridge at 7 via Re(V)=O, other end not in the chain"}, "B4": {"name": "metallopeptide 5-7 (peptide)", "peptide": "YV[Nle]GC[dF]RWDRF-NH2", "modifications": "also: oxorhenium(V) N3S1 chelate: C5 SG + backbone N of X3, G4, C5, bridge at 5 via Re(V)=O, other end not in the chain"}, "B5": {"name": "metallopeptide 5-4 (peptide)", "peptide": "YV[Nle]GH[dF]RCDRF-NH2", "modifications": "also: oxorhenium(V) N3S1 chelate: C8 SG + backbone N of F6, R7, C8, bridge at 8 via Re(V)=O, other end not in the chain"}, "B6": {"name": "metallopeptide 5-8 (peptide)", "peptide": "YV[Nle]CH[dF]RWDRF-NH2", "modifications": "also: oxorhenium(V) N3S1 chelate: C4 SG + backbone N of V2, X3, C4, bridge at 4 via Re(V)=O, other end not in the chain"}, "B7": {"name": "metallopeptide 5-3 (peptide)", "peptide": "YV[Nle]GH[dF]RWCRF-NH2", "modifications": "also: oxorhenium(V) N3S1 chelate: C9 SG + backbone N of R7, W8, C9, bridge at 9 via Re(V)=O, other end not in the chain"}}, "note": "Square brackets hold non-standard residues; d marks the D form. Ends that are not written are not given here. Nle = CCCC[C@H](N)C(=O)O", "data": [{"target": "T1, melanocortin-1 receptor (MC1-R) of B-16 mouse melanoma cells (mouse, UniProt Q01727 1-315)", "T1 construct": "whole, on cells; membranes prepared from the cells were used; also called Melanocortin Receptor 1", "T1 sequence (Q01727 whole entry)": "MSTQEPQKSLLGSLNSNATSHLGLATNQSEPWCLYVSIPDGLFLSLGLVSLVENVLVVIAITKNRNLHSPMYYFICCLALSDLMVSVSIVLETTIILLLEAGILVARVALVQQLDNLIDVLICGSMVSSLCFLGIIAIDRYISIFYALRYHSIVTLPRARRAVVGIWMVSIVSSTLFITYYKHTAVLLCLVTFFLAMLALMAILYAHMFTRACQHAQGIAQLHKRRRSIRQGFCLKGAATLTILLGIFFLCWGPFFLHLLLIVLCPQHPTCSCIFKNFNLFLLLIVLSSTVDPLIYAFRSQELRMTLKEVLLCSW", "assay": "125I-NDP-α-MSH competition, B-16 membranes", "method": "(§1) The competitive inhibition binding assay was conducted using membranes prepared from hMC3-R, hMC4-R, hMC5-R, and B-16 mouse melanoma cells (containing MC1-R) using 0.4 nM ¹²⁵I-NDP-alpha-MSH (New England Nuclear, Boston, Mass., USA) in 50 mM HEPES buffer containing 1 mM MgCl₂, 2 mM CaCl₂, and 5 mM KCl, at pH 7.2. […] Incubation was for 90 minutes at room temperature, after which the assay mixture was filtered and the membranes washed three times with ice cold buffer. The filter was dried and counted in a gamma counter for remaining radioactivity bound to the membranes. 100% specific binding was defined as the difference in radioactivity (cpm) bound to cell membranes in the absence and presence of 1 μM α-MSH. […] Each assay was conducted in triplicate and the actual mean valves are described.\n(§2) The first unnumbered peptide in Table 3 is the parent polypeptide, which is a Nle³, D-Phe⁶ substituted γ-MSH analog specific for melanocortin receptors. The methods and assays set forth in Example 1 were followed.", "units": {"% Inhibition at 1 µM": "%"}, "values": [{"binder": "YVXGHFRWDRF (Nle 3 (X in letters); D-Phe 6; C-terminal amide, not complexed to Re)", "note": "[[Nle3, D-Phe6]-γ-MSH parent polypeptide Tyr-Val-Nle-Gly-His-D-Phe-Arg-Trp-Asp-Arg-Phe-NH2]", "% Inhibition at 1 µM": 99}]}, {"target": "T1, melanocortin-1 receptor (MC1-R) of B-16 …", "assay": "125I-NDP-α-MSH competition, B-16 membranes", "remark": "another data set of the same source", "method": "as §1\n(§3) The first unnumbered peptide in Table 5 is the parent polypeptide, which is a γ-MSH analog specific for melanocortin receptors. The methods and assays set forth in Example 1 were followed.", "units": {"% Inhibition at 1 µM": "%"}, "values": [{"binder": "YVCGH[dF]RWDRF-NH2 (also: oxorhenium(V) N3S1 chelate complex at Cys3)", "note": "[metallopeptide 5-9]", "% Inhibition at 1 µM": 89}, {"binder": "YVXGHFRWDRF (Nle 3 (X in letters); D-Phe 6; C-terminal amide, not complexed to Re)", "note": "[[Nle3, D-Phe6]-γ-MSH parent polypeptide Tyr-Val-Nle-Gly-His-D-Phe-Arg-Trp-Asp-Arg-Phe-NH2]", "% Inhibition at 1 µM": 99}, {"binder": "B1", "% Inhibition at 1 µM": 95}, {"binder": "B2", "% Inhibition at 1 µM": 74}, {"binder": "B3", "% Inhibition at 1 µM": 67}, {"binder": "B4", "% Inhibition at 1 µM": 89}, {"binder": "B5", "% Inhibition at 1 µM": 86}, {"binder": "B6", "% Inhibition at 1 µM": 95}, {"binder": "B7", "% Inhibition at 1 µM": 100}]}, {"target": "T2, human melanocortin-3 receptor (hMC3-R) (human, UniProt P41968 1-323)", "T2 construct": "whole, on cells; membranes prepared from hMC3-R cells were used; also called Melanocortin Receptor 3", "T2 sequence (P41968 whole entry)": "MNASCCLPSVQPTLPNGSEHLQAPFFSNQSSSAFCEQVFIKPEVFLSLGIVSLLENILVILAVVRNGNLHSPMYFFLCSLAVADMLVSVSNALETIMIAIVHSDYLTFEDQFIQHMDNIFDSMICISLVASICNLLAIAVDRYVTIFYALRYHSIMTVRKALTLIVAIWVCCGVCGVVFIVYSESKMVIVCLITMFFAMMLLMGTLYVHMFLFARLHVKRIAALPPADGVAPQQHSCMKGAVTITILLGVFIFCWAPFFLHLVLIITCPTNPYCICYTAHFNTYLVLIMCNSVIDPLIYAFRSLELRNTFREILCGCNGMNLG", "assay": "125I-NDP-α-MSH competition, hMC3-R membranes", "method": "as §1, §2", "units": {"% Inhibition at 1 µM": "%"}, "values": [{"binder": "YVXGHFRWDRF (Nle 3 (X in letters); D-Phe 6; C-terminal amide, not complexed to Re)", "note": "[[Nle3, D-Phe6]-γ-MSH parent polypeptide Tyr-Val-Nle-Gly-His-D-Phe-Arg-Trp-Asp-Arg-Phe-NH2]", "% Inhibition at 1 µM": 100}]}, {"target": "T3, human melanocortin-4 receptor (hMC4-R) (human, UniProt P32245 1-332)", "T3 construct": "whole, on cells; membranes prepared from hMC4-R cells were used; also called Melanocortin Receptor 4", "T3 sequence (P32245 whole entry)": "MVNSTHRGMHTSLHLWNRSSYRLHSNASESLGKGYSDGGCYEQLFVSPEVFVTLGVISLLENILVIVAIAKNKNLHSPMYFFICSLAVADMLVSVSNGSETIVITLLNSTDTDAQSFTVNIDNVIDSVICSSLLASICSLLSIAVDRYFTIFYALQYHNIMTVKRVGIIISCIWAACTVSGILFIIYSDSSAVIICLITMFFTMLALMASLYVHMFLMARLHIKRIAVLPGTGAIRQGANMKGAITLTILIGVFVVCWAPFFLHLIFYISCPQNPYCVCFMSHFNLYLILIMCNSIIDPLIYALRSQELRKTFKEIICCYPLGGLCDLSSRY", "assay": "125I-NDP-α-MSH competition, hMC4-R membranes", "method": "as §1, §2", "units": {"% Inhibition at 1 µM": "%"}, "values": [{"binder": "YVXGHFRWDRF (Nle 3 (X in letters); D-Phe 6; C-terminal amide, not complexed to Re)", "note": "[[Nle3, D-Phe6]-γ-MSH parent polypeptide Tyr-Val-Nle-Gly-His-D-Phe-Arg-Trp-Asp-Arg-Phe-NH2]", "% Inhibition at 1 µM": 99}]}, {"target": "T4, human melanocortin-5 receptor (hMC5-R) (human, UniProt P33032 1-325)", "T4 construct": "whole, on cells; membranes prepared from hMC5-R cells were used; also called Melanocortin Receptor 5", "T4 sequence (P33032 whole entry)": "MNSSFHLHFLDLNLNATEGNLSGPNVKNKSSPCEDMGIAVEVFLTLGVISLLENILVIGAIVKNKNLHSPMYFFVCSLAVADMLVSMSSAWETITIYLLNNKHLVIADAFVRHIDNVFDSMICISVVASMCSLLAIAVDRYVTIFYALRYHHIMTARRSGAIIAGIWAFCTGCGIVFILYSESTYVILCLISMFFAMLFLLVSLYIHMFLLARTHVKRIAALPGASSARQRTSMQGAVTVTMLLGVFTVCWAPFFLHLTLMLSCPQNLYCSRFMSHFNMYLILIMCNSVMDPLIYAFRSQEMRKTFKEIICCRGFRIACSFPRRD", "assay": "125I-NDP-α-MSH competition, hMC5-R membranes", "method": "as §1, §2", "units": {"% Inhibition at 1 µM": "%"}, "values": [{"binder": "YVXGHFRWDRF (Nle 3 (X in letters); D-Phe 6; C-terminal amide, not complexed to Re)", "note": "[[Nle3, D-Phe6]-γ-MSH parent polypeptide Tyr-Val-Nle-Gly-His-D-Phe-Arg-Trp-Asp-Arg-Phe-NH2]", "% Inhibition at 1 µM": 100}]}, {"target": "T2, human melanocortin-3 receptor (hMC3-R)", "assay": "125I-NDP-α-MSH competition, hMC3-R membranes", "remark": "another data set of the same source", "method": "as §1, §3", "units": {"% Inhibition at 1 µM": "%"}, "values": [{"binder": "YVCGH[dF]RWDRF-NH2 (also: oxorhenium(V) N3S1 chelate complex at Cys3)", "note": "[metallopeptide 5-9]", "% Inhibition at 1 µM": 53}, {"binder": "YVXGHFRWDRF (Nle 3 (X in letters); D-Phe 6; C-terminal amide, not complexed to Re)", "note": "[[Nle3, D-Phe6]-γ-MSH parent polypeptide Tyr-Val-Nle-Gly-His-D-Phe-Arg-Trp-Asp-Arg-Phe-NH2]", "% Inhibition at 1 µM": 100}, {"binder": "B1", "% Inhibition at 1 µM": 39}, {"binder": "B2", "% Inhibition at 1 µM": 26}, {"binder": "B3", "% Inhibition at 1 µM": 15}, {"binder": "B4", "% Inhibition at 1 µM": 70}, {"binder": "B5", "% Inhibition at 1 µM": 11}, {"binder": "B6", "% Inhibition at 1 µM": 89}, {"binder": "B7", "% Inhibition at 1 µM": 93}]}, {"target": "T3, human melanocortin-4 receptor (hMC4-R)", "assay": "125I-NDP-α-MSH competition, hMC4-R membranes", "remark": "another data set of the same source", "method": "as §1, §3", "units": {"% Inhibition at 1 µM": "%"}, "values": [{"binder": "YVCGH[dF]RWDRF-NH2 (also: oxorhenium(V) N3S1 chelate complex at Cys3)", "note": "[metallopeptide 5-9]", "% Inhibition at 1 µM": 66}, {"binder": "YVXGHFRWDRF (Nle 3 (X in letters); D-Phe 6; C-terminal amide, not complexed to Re)", "note": "[[Nle3, D-Phe6]-γ-MSH parent polypeptide Tyr-Val-Nle-Gly-His-D-Phe-Arg-Trp-Asp-Arg-Phe-NH2]", "% Inhibition at 1 µM": 99}, {"binder": "B1", "% Inhibition at 1 µM": 58}, {"binder": "B2", "% Inhibition at 1 µM": 4}, {"binder": "B3", "% Inhibition at 1 µM": 26}, {"binder": "B4", "% Inhibition at 1 µM": 69}, {"binder": "B5", "% Inhibition at 1 µM": 18}, {"binder": "B6", "% Inhibition at 1 µM": 86}, {"binder": "B7", "% Inhibition at 1 µM": 97}]}, {"target": "T4, human melanocortin-5 receptor (hMC5-R)", "assay": "125I-NDP-α-MSH competition, hMC5-R membranes", "remark": "another data set of the same source", "method": "as §1, §3", "units": {"% Inhibition at 1 µM": "%"}, "values": [{"binder": "YVCGH[dF]RWDRF-NH2 (also: oxorhenium(V) N3S1 chelate complex at Cys3)", "note": "[metallopeptide 5-9]", "% Inhibition at 1 µM": 53}, {"binder": "YVXGHFRWDRF (Nle 3 (X in letters); D-Phe 6; C-terminal amide, not complexed to Re)", "note": "[[Nle3, D-Phe6]-γ-MSH parent polypeptide Tyr-Val-Nle-Gly-His-D-Phe-Arg-Trp-Asp-Arg-Phe-NH2]", "% Inhibition at 1 µM": 100}, {"binder": "B1", "% Inhibition at 1 µM": 61}, {"binder": "B2", "% Inhibition at 1 µM": 21}, {"binder": "B3", "% Inhibition at 1 µM": 28}, {"binder": "B4", "% Inhibition at 1 µM": 88}, {"binder": "B5", "% Inhibition at 1 µM": 58}, {"binder": "B6", "% Inhibition at 1 µM": 98}, {"binder": "B7", "% Inhibition at 1 µM": 100}]}]}
